Laboratory results: IntAct's records for PubMed 23035120

B1: Protein kinase C and casein kinase substrate in neurons protein 1 (Mus musculus), Q61644 (parent)
chain: MSGSYDEASEEITDSFWEVGNYKRTVKRIDDGHRLCNDLMSCVQERAKIEKAYAQQLTDWAKRWRQLIEKGPQYGSLERAWGAMMTEADKVSELHQEVKNSLLNEDLEKVKNWQKDAYHKQIMGGFKETKEAEDGFRKAQKPWAKKMKELEAAKKAYHLACKEERLAMTREMNSKTEQSVTPEQQKKLVDKVDKCRQDVQKTQEKYEKVLEDVGKTTPQYMEGMEQVFEQCQQFEEKRLVFLKEVLLDIKRHLNLAENSSYMHVYRELEQAIRGADAQEDLRWFRSTSGPGMPMNWPQFEEWNPDLPHTTAKKEKQPKKAEGATLSNATGAVESTSQAGDRGSVSSYDRGQTYATEWSDDESGNPFGGNEANGGANPFEDDAKGVRVRALYDYDGQEQDELSFKAGDELTKLGEEDEQGWCRGRLDSGQLGLYPANYVEAI

Variants of: B1
Settings: with Mapt
With P434L the “effect of a mutation on the interaction” value was “disrupting interaction”.
